Results as given in PMC10368727, “Sequestration of histidine kinases by non-cognate response regulators establishes a threshold level of stimulation for bacterial two-component signaling” (Nature Communications, 2023).
Read-outs that look alike come from different tables or passages of the source.

T1: phosphorylated, histidine tag labeled HK PrrB (cytosolic catalytic domain) (M. tuberculosis, UniProt P9WGK7 172-446)
T1 construct: also called PrrB~P
T1 sequence: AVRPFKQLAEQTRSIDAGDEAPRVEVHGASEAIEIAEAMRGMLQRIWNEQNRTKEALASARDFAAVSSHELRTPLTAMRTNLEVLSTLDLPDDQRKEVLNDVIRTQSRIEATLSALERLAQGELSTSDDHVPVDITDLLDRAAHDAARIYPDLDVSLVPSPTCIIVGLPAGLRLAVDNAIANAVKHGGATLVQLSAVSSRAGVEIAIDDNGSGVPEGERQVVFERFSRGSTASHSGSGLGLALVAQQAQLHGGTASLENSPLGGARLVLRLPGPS

T2: phosphorylated, histidine tag labeled HK KdpD (cytosolic catalytic domain) (M. tuberculosis, UniProt P9WGL3 532-860)
T2 construct: also called KdpD~P
T2 sequence: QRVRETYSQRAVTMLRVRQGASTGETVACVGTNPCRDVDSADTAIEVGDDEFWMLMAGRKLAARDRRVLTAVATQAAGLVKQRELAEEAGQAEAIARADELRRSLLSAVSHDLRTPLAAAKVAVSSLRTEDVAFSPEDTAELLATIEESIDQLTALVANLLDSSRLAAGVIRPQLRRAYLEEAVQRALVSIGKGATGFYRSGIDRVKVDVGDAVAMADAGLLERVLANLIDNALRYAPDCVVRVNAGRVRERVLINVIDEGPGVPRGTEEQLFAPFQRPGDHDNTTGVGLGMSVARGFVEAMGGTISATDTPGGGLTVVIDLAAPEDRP

B1: response regulator MprA (natural protein)
chain: MSVRILVVDDDRAVRESLRRSLSFNGYSVELAHDGVEALDMIASDRPDALVLDVMMPRLDGLEVCRQLRGTGDDLPILVLTARDSVSERVAGLDAGADDYLPKPFALEELLARMRALLRRTKPEDAAESMAMRFSDLTLDPVTREVNRGQRRISLTRTEFALLEMLIANPRRVLTRSRILEEVWGFDFPTSGNALEVYVGYLRRKTEADGEPRLIHTVRGVGYVLRETPP
B2: response regulator KdpE (natural protein)
chain: MTLVLVIDDEPQILRALRINLTVRGYQVITASTGAGALRAAAEHPPDVVILDLGLPDMSGIDVLGGLRGWLTAPVIVLSARTDSSDKVQALDAGADDYVTKPFGMDEFLARLRAAVRRNTAAAELEQPVIETDSFTVDLAGKKVIKDGAEVHLTPTEWGMLEMLARNRGKLVGRGELLKEVWGPAYATETHYLRVYLAQLRRKLEDDPSHPKHLLTESGMGYRFEA
B3: GFP-tagged MtrB, unphosphorylated (cytosolic catalytic domain) (domain or fragment)
chain: SRQVVVPVRSASRIAERFAEGHLSERMPVRGEDDMARLAVSFNDMAESLSRQIAQLEEFGNLQRRFTSDVSHELRTPLTTVRMAADLIYDHSADLDPTLRRSTELMVSELDRFETLLNDLLEISRHDAGVAELSVEAVDLRTTVNNALGNVGHLAEEAGIELLVDLPAEQVIAEVDARRVERILRNLIANAIDHAEHKPVRIRMAADEDTVAVTVRDYGVGLRPGEEKLVFSRFWRSDPSRVRRSGGTGLGLAISVEDARLHQGRLEAWGEPGEGACFRLTLPMVRGHKVTTSPLPMKPIPQPVLQPVAQPNPQPMPPEYKERQRPREHAEWSG
notes: also called MtrB-GFP
B4: phosphorylated, GFP-tagged HK MtrB (cytosolic catalytic domain) (domain or fragment)
chain: B3 chain
notes: also called MtrB~P; P~MtrB-GFP
B5: response regulator NarL (natural protein)
chain: MSNPQPEKVRVVVGDDHPLFREGVVRALSLSGSVNVVGEADDGAAALELIKAHLPDVALLDYRMPGMDGAQVAAAVRSYELPTRVLLISAHDEPAIVYQALQQGAAGFLLKDSTRTEIVKAVLDCAKGRDVVAPSLVGGLAGEIRQRAAPVAPVLSAREREVLNRIACGQSIPAIAAELYVAPSTVKTHVQRLYEKLGVSDRAAAVAEAMRQRLLD
notes: also called non-cognate RR NarL
B6: phosphorylated, histidine tag labeled HK DevS (cytosolic catalytic domain) (domain or fragment)
chain: LATSQRRMRELDVLTDRDRIARDLHDHVIQRLFAIGLALQGAVPHERNPEVQQRLSDVVDDLQDVIQEIRTTIYDLHGASQGITRLRQRIDAAVAQFADSGLRTSVQFVGPLSVVDSALADQAEAVVREAVSNAVRHAKASTLTVRVKVDDDLCIEVTDNGRGLPDEFTGSGLTNLRQRAEQAGGEFTLASVPGASGTVLRWSAPLSQ
notes: also called DevS~P
B7: response regulator TcrX (natural protein)
chain: MRRADGQPVTVLVVDDEPVLAEMVSMALRYEGWNITTAGDGSSAIAAARRQRPDVVVLDVMLPDMSGLDVLHKLRSENPGLPVLLLTAKDAVEDRIAGLTAGGDDYVTKPFSIEEVVLRLRALLRRTGVTTVDSGAQLVVGDLVLDEDSHEVMRAGEPVSLTSTEFELLRFMMHNSKRVLSKAQILDRVWSYDFGGRSNIVELYISYLRKKIDNGREPMIHTLRGAGYVLKPAR
B8: response regulator MtrA (natural protein)
chain: MDTMRQRILVVDDDASLAEMLTIVLRGEGFDTAVIGDGTQALTAVRELRPDLVLLDLMLPGMNGIDVCRVLRADSGVPIVMLTAKTDTVDVVLGLESGADDYIMKPFKPKELVARVRARLRRNDDEPAEMLSIADVEIDVPAHKVTRNGEQISLTPLEFDLLVALARKPRQVFTRDVLLEQVWGYRHPADTRLVNVHVQRLRAKVEKDPENPTVVLTVRGVGYKAGPP
notes: also called cognate RR MtrA
B9: response regulator PrrA (natural protein)
chain: MDTGVTSPRVLVVDDDSDVLASLERGLRLSGFEVATAVDGAEALRSATENRPDAIVLDINMPVLDGVSVVTALRAMDNDVPVCVLSARSSVDDRVAGLEAGADDYLVKPFVLAELVARVKALLRRRGSTATSSSETITVGPLEVDIPGRRARVNGVDVDLTKREFDLLAVLAEHKTAVLSRAQLLELVWGYDFAADTNVVDVFIGYLRRKLEAGGGPRLLHTVRGVGFVLRMQ
B10: phosphorylated, GFP-tagged HK PhoR (cytosolic catalytic domain) (domain or fragment)
chain: RRSLRPLAEFEQTAAAIGAGQLDRRVPQWHPRTEVGRLSLALNGMLAQIQRAVASAESSAEKARDSEDRMRQFITDASHELRTPLTTIRGFAELYRQGAARDVGMLLSRIESEASRMGLLVDDLLLLARLDAHRPLELCRVDLLALASDAAHDARAMDPKRRITLEVLDGPGTPEVLGDESRLRQVLRNLVANAIQHTPESADVTVRVGTEGDDAILEVADDGPGMSQEDALRVFERFYRADSSRARASGGTGLGLSIVDSLVAAHGGAVTVTTALGEGCCFRVSLPRVSDVDQLSLTPVVPGPP
notes: also called PhoR-GFP; PhoR~P
B11: response regulator TcrA (natural protein)
chain: MADETTMRAGRGPGRACGRVSGVRILVVEDEPKMTALLARALTEEGHTVDTVADGRHAVAAVDGGDYDAVVLDVMLPGIDGFEVCARLRRQRVWTPVLMLTARGAVTDRIAGLDGGADDYLTKPFNLDELFARLRALSRRGPIPRPPTLEAGDLRLDPSEHRVWRADTEIRLSHKEFTLLEALIRRPGIVHTRAQLLERCWDAAYEARSNIVDVYIRYLRDKIDRPFGVTSLETIRGAGYRLRKDGGRHALPR

Tests used:
Conditions in all cases: both partners purified
[1] = biological target: T1, phosphorylated, histidine tag labeled …; test: MST
[2] = biological target: B4; test: MST
[3] = biological target: T2, phosphorylated, histidine tag labeled …; test: MST
response regulator PhoP [4] = biological target: T3, response regulator PhoP (M. tuberculosis, UniProt P71814 1-247); test: MST; GFP-tagged MtrB in the unphosphorylated state titrated with RR
response regulator PhoP [5] = biological target: T3, response regulator PhoP
[6] = biological target: B3; test: MST; GFP-tagged MtrB in the unphosphorylated state titrated with RR
response regulator NarL = biological target: B5; test: MST
response regulator DevR = response regulator DevR (M. tuberculosis, UniProt P9WMF9 1-217); test: MST
[7] = biological target: B10

response regulator DevR, sequence (P9WMF9 whole entry): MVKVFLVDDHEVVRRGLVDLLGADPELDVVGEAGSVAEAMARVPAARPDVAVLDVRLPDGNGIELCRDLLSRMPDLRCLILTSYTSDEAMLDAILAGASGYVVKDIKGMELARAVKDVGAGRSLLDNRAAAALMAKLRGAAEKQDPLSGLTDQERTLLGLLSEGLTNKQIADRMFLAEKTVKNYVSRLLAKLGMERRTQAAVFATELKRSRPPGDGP

In the case of B1, the Kd [1] is reported as 1.96 µM.

For B2, the Kd [2] was 0.868 ± 0.1 µM and the Kd [3] was 4.49 µM.

B3 showed a Kd (response regulator PhoP [4]) of 18.1 ± 2.74 µM.

With B4 the Kd (response regulator PhoP [5]) was 3.58 ± 0.121 µM.

B5 was tested, and the Kd [6] was 0.402 ± 0.058 µM, the Kd [2] was 0.083 ± 0.015 µM and the Kd [3] was 0.355 µM.

B6 showed a Kd (response regulator NarL) of 0.325 µM and a Kd (response regulator DevR) of 13.2 µM.

B7 was tested, and the Kd [7] was 0.484 µM, the Kd [6] was 21.7 ± 5.02 µM and the Kd [2] was 0.082 ± 0.012 µM.

Work on B8 yielded a Kd [6] of 0.936 ± 0.113 µM and a Kd [2] of 0.444 ± 0.117 µM.

In the case of B9, the Kd [1] is reported as 4.31 µM.

With B10 the Kd (response regulator PhoP [5]) was 1.49 µM.

Work on B11 yielded a Kd [7] of 1.83 µM and a Kd [2] of 3.07 ± 0.074 µM.
